Drawing on the supplement of paper PMC10126150, this text covers switch fluorescence ratio for 120 sequences.

± gives the standard deviation of the averaged measurements.

The series relates to ATP. Kind of series: switch fluorescence ratio, 500 uM ATP over buffer (Cy3 cluster intensity, sum of 5 cycles each) (fold (ratio)); higher = stronger signal-on switching upon ATP binding; sequences stand for … in TCGTCGGCAGCGTCAGATGTGTATAAGAGACAGTTTTTTTTTTTTTTTTTTTTTTTTT…TC. Particulars: aptamer strand: ATP DNA aptamer (quencher-CACCTGGGGGAGTATTGCGGAGGAAGG + anchor), 100 nM annealed; ATP concentration: 500 uM. The method in brief: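 Five buffer/ATP imaging cycles were run on Cy3-labelled switching-strand clusters on a modified Illumina MiSeq flow-cell, with NaOH stripping and re-annealing between cycles. In each cycle, clusters annealed to 100 nM quencher-labelled ATP aptamer were imaged in selection buffer, then after 15 min with 500 uM ATP at 22 °C. Per cluster, the fluorescence ratio is summed target-cycle over summed buffer-cycle Cy3 intensity, averaged per switch-domain sequence. Only clusters within 100-1000 RFU were kept.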
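Note: ATP exposure 15 min at 22 °C before imaging.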

Turning to TTGGGGAGGG, the switch fluorescence ratio is 1.02 ± 0.05.
In the case of GTATTTACTT it was 1.02 ± 0.012; in that of TTTATTGCGT, 1.01 ± 0.048.
As for ATTGATGGCC, the switch fluorescence ratio stood at 0.963 ± 0.032.
Regarding TACAGCGGAG, the switch fluorescence ratio turned out to be 0.999 ± 0.066.
Next, CTGCCAATGG: 1.99 ± 0.053.
As for CCGCTTTTTT, the switch fluorescence ratio was 1.28 ± 0.23.
In the case of TTATTGGCGG, the switch fluorescence ratio is 1.015 ± 0.0097.
Next, ATGGAGATAG: 1.01 ± 0.026; GGTTTTCCAG: 0.946 ± 0.063; TATTTGGGTC: 0.98285 ± 0.00046.
In the case of CGTGCAGGGT it was 1.03 ± 0.052.
Next, AGTGTGGGGA: 1.03 ± 0.028; TCCTGAGTAA: 1.55 ± 0.25; CATATACGAG: 1.11 ± 0.015.
For CTTATCTGGG, the switch fluorescence ratio turned out to be 0.999 ± 0.041.
In the case of AAAAGTGTTG it was 0.948 ± 0.03; in that of TTGGTCAAGG, 0.995 ± 0.045.
Next, TGAATTTTAT: 0.9885 ± 0.0073; CGTCCGGTCG: 1.02 ± 0.064.
In the case of TTTAAGTTGG it was 0.983 ± 0.013.
Regarding GGGGTACTAG, the switch fluorescence ratio amounted to 0.9981 ± 0.0071.
In the case of AGTACAGGGT it was 0.99 ± 0.032; in that of TTTGGTTTGT, 1.1 ± 0.19; in that of TGCAATTCGT, 1.13 ± 0.033.
In the case of TTTACATTAT it was 0.981 ± 0.058; in that of GGATTTGCCT, 0.997 ± 0.041.
In the case of CGCGACAACA it was 0.999 ± 0.031; in that of CAAGCGGTT, 0.9628 ± 0.0056; in that of TTGCCACTGA, 1.02 ± 0.013.
Turning to TGATACTTAG, the switch fluorescence ratio turned out to be 1.061 ± 0.0084.
In the case of CCAGGGGGGA it was 1.18 ± 0.048; in that of TTCGTTTAAT, 0.9989 ± 0.0017; in that of GTCGTCGTCG, 0.972 ± 0.012.
In the case of TGCGGGGGTT it was 1.02 ± 0.03; in that of GGGAGATTGG, 1.09 ± 0.12.
Take GTTAGAGTTT: the switch fluorescence ratio was 0.988 ± 0.03.
In the case of CGAAAAGTTG it was 1.01 ± 0.048; in that of TAAGTTATAT, 0.985 ± 0.015; in that of CTATGCTAGT, 1.01 ± 0.016.
Next, TGTGTGGTTT: 0.986 ± 0.036.
Next, ATTGAGTTAG: 0.99 ± 0.011; TGGTGTAAT: 1 ± 0.03.
Consider CTAATATGGG, for which the switch fluorescence ratio turned out to be 1.04 ± 0.021.
Next, GTTTAAACTC: 0.961 ± 0.022; GTAATCTTTA: 0.982 ± 0.029; ATCCTCTGCC: 3.16 ± 0.72.
As to CATGGCGGAG, the switch fluorescence ratio was 1.03 ± 0.023.
For the sequence CTCCATATGT, the switch fluorescence ratio was 1.039 ± 0.0016.
Regarding TTTGTTATGG, the switch fluorescence ratio was 1.02 ± 0.063.
In the case of TTCCCTTTTG it was 1.02 ± 0.0057.
In the case of ATGGGAATTT it was 0.996 ± 0.028; in that of GGTCGTGCGG, 1 ± 0.018.
For GATCGTTGTC, the switch fluorescence ratio amounted to 0.988 ± 0.027.
Next, AGGATGAGCT: 0.969 ± 0.032; TGAAGGGGAA: 1.02 ± 0.061.
In the case of GGATGGAAAG it was 0.999 ± 0.015.
Consider TTCTTGGAAT, for which the switch fluorescence ratio worked out at 0.969 ± 0.049.
In the case of TTTTGGGGAG it was 1.02 ± 0.029.
Next, TCGAGTAAAA: 0.9902 ± 0.0039; ATCAAGTCTG: 0.9898 ± 0.0028; GTCGTAGTAC: 1.1974 ± 0.00024.
Take TGCAATTTCG: the switch fluorescence ratio was determined as 1.07 ± 0.065.
In the case of GGAGTAAAGA it was 0.992 ± 0.037; in that of TTGTTCCAAT, 0.989 ± 0.012; in that of CGTTTGAGGA, 1.01 ± 0.03.
Take CGTTGGGAGT: the switch fluorescence ratio was found to be 0.988 ± 0.037.
Next, TATCTAATGC: 1 ± 0.085; TAAAGGGTGG: 0.987 ± 0.032; TGGGGTAGTG: 1.01 ± 0.025.
In the case of TGGGGGGTGA it was 0.997 ± 0.049.
In the case of CGAGGTGGCT it was 1.01 ± 0.028; in that of TTTTCGTTGT, 0.996 ± 0.018.
Turning to GTGAAAGATT, the switch fluorescence ratio came to 1.02 ± 0.041.
In the case of GAGTAGTGGG it was 0.982 ± 0.037; in that of TAGATTCGCT, 0.993 ± 0.039.
In the case of CTTTATATGG it was 0.96 ± 0.046.
Next, ACTGCATCTA: 1.09 ± 0.033.
For the sequence TAGTTGTTTT, the switch fluorescence ratio was 1 ± 0.04.
Next, AGGTTCCTCT: 1.04 ± 0.019.
In the case of AAGGTCTGAG it was 1.02 ± 0.043; in that of CCGGGTGGTA, 1.17 ± 0.015.
Next, TTAAAAGTTA: 1.03 ± 0.044.
In the case of TAATACTATG, the switch fluorescence ratio was 1.05 ± 0.074.
In the case of CATTATCACG it was 1.075 ± 0.01; in that of GCAAAAGAGA, 0.994 ± 0.032.
Next, TTTCAACCTT: 1.42 ± 0.071; TCAGTAGGCT: 1.043 ± 0.0032; GCTTCCTGTG: 1.49 ± 0.036.
Next, GCGGTTTTTT: 1.22 ± 0.35; TACTTTGCGG: 1.01 ± 0.063; AACTGCAATT: 2 ± 1.1.
On to AGGCGATCGG, for which the switch fluorescence ratio was determined as 0.99 ± 0.023.
In the case of TTTTAACGGC it was 0.971 ± 0.082.
In the case of TATGCGGACA it was 1.04 ± 0.027; in that of AGTTATTTGA, 1 ± 0.031.
In the case of TTTTCGGACA it was 1.033 ± 0.0027.
CGGATTCCCC: the switch fluorescence ratio worked out at 1.06 ± 0.011.
Next, GAGGCTAGGG: 1.05 ± 0.031; GCAATTGGGT: 1.08 ± 0.012; GAGGATCTTG: 1 ± 0.031.
Next, AATTGTTGTT: 0.998 ± 0.033.
In the case of TTTTGGGACC it was 0.992 ± 0.037; in that of AGGTTTGTGT, 1.01 ± 0.024.
TTAATGCTAA: the switch fluorescence ratio came to 0.99 ± 0.036.
With CGGAGTTTTG, the switch fluorescence ratio came to 1.01 ± 0.027.
On to TAGACACAGC, for which the switch fluorescence ratio is 1.02 ± 0.12.
In the case of TTAGATATGG it was 1.02 ± 0.026; in that of GGGATTGTCT, 0.948 ± 0.033; in that of AGGAGGCGGG, 0.99 ± 0.035.
Next, AAGGGCAGGG: 1.03 ± 0.029; CGTTTAAGCG: 1.01 ± 0.038.
Next, GAGGGGGCAA: 1.01 ± 0.016; TTCTAAGGGA: 1.01 ± 0.023.
For TCTGAACAGG, the switch fluorescence ratio amounted to 1.03 ± 0.014.
In the case of AGACGATTGG it was 0.974 ± 0.076.
Next, AAGATAGGGG: 1 ± 0.023.
Next, TAAGTGGTCG: 1.03 ± 0.036.
In the case of CGGGGGGACG, the switch fluorescence ratio came out at 1.01 ± 0.084.
In the case of CCAAGGGGGA it was 1.09 ± 0.1.
